# Experimental data: the RNAGym collection of RNA variant scans (doi:10.7554/elife.90254)
# B1: LINE1-full (parent)
# chain: UACGUAGGUGGUUUUCCCCUGAUAGUGCUAAGGGGGCCUGGAAGUUUGGACUGGGCAGAGCUCAACACAGCGUGGCAAAGUGGCUGUGGCUAGACUGCCUCUCUGGAUUCCUCGUCACUCAGCAGGGCAUCUCUGAGAGAAAUGCC
# Variants of: B1
# Assay: self-cleavage, relative activity (ratio to wild type); higher = more cleavage; in vitro, sequencing; the parent is a self-cleaving ribozyme
row,Variant,self-cleavage
1,U20C A142U,2.2
2,A43G G80A,1.48
3,U20A G33U,0.66
4,A67G U112C,0.39
5,A57G G60C,0.11
6,U5A G32A,0.93
7,U29C U109C,0.91
8,U46C A117C,2.44
9,U13C A64C,0.45
10,U100C C103A,0.85
11,A30G U132G,1.93
12,A79G U143A,1.52
13,A59G A64C,0
14,U13A U73A,1.04
15,U100C G127C,2.48
16,C99U U134A,0.37
17,C19U A142G,1.06
18,A67U U81A,0.07
19,U52C U104A,1.02
20,G49A G82U,1.49
21,A64G A138G,0.21
22,C128U,1.39
23,A117U A142G,1.43
24,U45G A141G,1.32

row,Variant,self-cleavage
1,G41C A138G,0.97
2,A94G U132C,0.34
3,G55A U81A,0.08
4,G36C U91C,0.51
5,U12G A69U,0.08
6,A67U U130A,0.13
7,A6U U134A,1.28
8,U73A A140G,1.69
9,U112C U115C,1.29
10,G40A A117U,1.43
11,A59C,0.96
12,C37G A92G,0.04
13,A22G U130A,1.52
14,A6U A142G,0.81
15,A31U G86A,0.05
16,A77U U143A,1.18
17,A67G G89U,0.02
18,A64G G93A,0.04
19,G72A A124U,1.22
20,U12G A50G,1.2
21,U46A U119C,0.92
22,U20C A50U,1.32
23,U15A U100C,0.91
24,U109C C113U,1.28

row,Variant,self-cleavage
1,U39A U102C,1.72
2,A136U A140U,1.65
3,U47G U134C,0
4,U14C G54A,0.71
5,G4A A42U,0.78
6,C37U U132C,1.21
7,A6U G114A,0
8,U73G,1.29
9,U87C U102C,0.36
10,U23C C51U,0.97
11,U23C C51A,0.98
12,A43G U52C,1.13
13,U12C A43G,1.33
14,U47A G82A,2.27
15,A24G G86A,0.12
16,U45C A129G,1.4
17,C19U G36C,0.82
18,U96C A140U,0.14
19,U9C U14A,1.17
20,U73A U119C,1.86
21,G105U U132C,0
22,A79U G135C,2.76
23,A124U C128U,1.21
24,G83C,0.87

row,Variant,self-cleavage
1,U132C C146U,1.51
2,C84U A124G,0.11
3,A77U U130A,1.01
4,G82A G126U,2.04
5,A121U A141G,1.24
6,A64U G80U,0.47
7,C17U U132C,0.95
8,U62C C71U,0.05
9,U29C A94G,0.54
10,G7U C16U,1.5
11,C68A A69G,0.07
12,U102C U104A,1.52
13,A50U A78G,0.83
14,U13A A77G,0.46
15,A67U U119C,0.19
16,U9A C18A,1.09
17,U134A A140U,0.85
18,A31G U102C,0.35
19,G114U A140G,0.91
20,G126A A129U,2.47
21,U85A U87A,0.07
22,A22G U26A,1.4
23,U20G U52A,1.36
24,U104C A141C,1.73

row,Variant,self-cleavage
1,U15A U26C,0.86
2,C99U A141G,0.62
3,A22U A121C,1.27
4,A117G A121U,1.86
5,C3A A129G,0.88
6,C16U U108A,1.14
7,G86A A92G,0.02
8,A22G A65G,0.08
9,A59G U104G,0.08
10,A59G U104C,0.15
11,G75A U112A,0.91
12,G27A A140U,1.28
13,A92G U104C,0.05
14,U39G U115A,1.31
15,A59C U102C,2.07
16,A43G U45C,1.1
17,U52C G139A,0.78
18,A30G A117G,0.91
19,U91C G106A,0.95
20,G40A U81A,1.71
21,G53U U81A,1.52
22,G34C A140U,1.31
23,G35A A107U,1.41
24,U12C U119C,1.64

row,Variant,self-cleavage
1,C99G A129G,0.3
2,A22G C95U,0.53
3,C17A U45C,1.35
4,G54A A78U,0.79
5,A42U U45C,1.4
6,U26G,0.99
7,G70A U134C,0.15
8,U115A G137A,1.81
9,U13C A121C,1.34
10,U14C A121U,1.25
11,A69G A124G,0.32
12,U20A A69G,0.45
13,A65G A140G,0.04
14,U45C A136U,1.49
15,U26A U143A,2.23
16,U15C C133A,1.27
17,U23A C146U,1.27
18,U73A A94U,0.27
19,U102C U134C,1.55
20,A67G U91C,0.16
21,U100C G125C,1.89
22,C95U U104A,0.1
23,G34A A77U,1.33
24,U15C A78G,1.34

row,Variant,self-cleavage
1,U23C U91A,0.8
2,U15A U119C,0.19
3,C51U A59G,0.09
4,U52A A78G,1.43
5,U26A A138G,1.25
6,U45C C76U,1.89
7,A78G C95U,0.1
8,A107U U109A,1.98
9,U46A U104A,0.9
10,U73C A140G,1.63
11,A64U U119A,0.34
12,A77C U81C,0
13,C95A U102C,0.11
14,U15A G80A,1.16
15,U39C U134C,1.5
16,U45G A129U,0.67
17,G83U A117U,1.21
18,U14G C66U,0.06
19,C19U A59G,0.03
20,G53U A107G,1.08
21,U12A A50G,1.45
22,U26A U115C,1.29
23,A129U A136G,1
